According to US20190142971A1, “FORMULATION AND DELIVERY OF MODIFIED NUCLEOSIDE, NUCLEOTIDE, AND NUCLEIC ACID COMPOSITIONS” (ModernaTX, Inc., priority 2013, published 2019):

Tests used:
Type in all cases: in vivo
[1] = test system: non-human primates (cynomolgus monkey); test: Example 22: NHP hematology: neutrophils, reticulocytes, HGB, HCT, RBC (Tables 40-44); conditions: for Female NHP HGB / Female NHP Neutrophils / Male NHP HGB / Male NHP Neutrophils: 0.5 mg/kg IV
Method: LNP formulations, shown in Table 33 (above), were administered to non-human primates (NHP) (cynomolgus monkey) (n=2) as intravenous injection (IV). The NHP were administered a single modified mRNA IV dose of 0.5 mg/kg, 0.05 mg/kg or 0.005 mg/kg of G-CSF or EPO in a dose volume of 0.5 mL/kg. The NHPs were bled before dosing with the modified mRNA LNP formulations to determine protein expression in the serum and a baseline complete blood count. After administration with the G-CSF modified mRNA formulation the NHP were bled at 8, 24, 48 and 72 hours to determined protein expression. After administration with the EPO modified mRNA formulation the NHP were bled at 8, 24, 48, 72 hours and 7 days to determined protein expression.
Samples collected from the NHPs after they were administered with G-CSF or EPO modified mRNA formulations were analyzed by ELISA to determine protein expression. Neutrophil and reticulocyte count was also determined pre-dose, 24 hours, 3 days, 7 days, 14 days and 18 days after administration of the modified G-CSF or EPO formulation.

[2] = test system: mice; test: Example 42A: G-CSF/EPO mRNA in buffer IM in mice, serum protein at 13 hours (Table 67); conditions: EPO group: human EPO in mouse serum, IM 100 ug
Method: The mice were bled at 13 hours after the injection to determine the concentration of the human polypeptide in serum in pg/mL (G-CSF groups measured human G-CSF in mouse serum and EPO groups measured human EPO in mouse serum).

[3] = test system: mice; test: Example 65: G-CSF/EPO mRNA in saline in mice, serum protein at 13 hours (Table 97); conditions: EPO group; 100 ug, 100 μl/mouse, F. buffer, 13 hours after injection
Method: The mice were bled at 13 hours after the injection to determine the concentration of the human polypeptide in serum in pg/mL. (G-CSF groups measured human G-CSF in mouse serum and EPO groups measured human EPO in mouse serum).

[4] = 0.05 mg/kg, 14/18 days, Male NHP
[5] = 0.05 mg/kg, 24 hours, Female NHP
[6] = 0.05 mg/kg, Pre-dose, Female NHP
[7] = 0.5 mg/kg, 14/18 days, Female NHP
[8] = 0.5 mg/kg, 14/18 days, Male NHP
[9] = 0.5 mg/kg, 24 hours, Female NHP
[10] = 0.5 mg/kg, Pre-dose, Female NHP

B1: EPO: modified mRNA encoding human erythropoietin, SEQ ID NO: 7, Cap1, fully modified with 5-methylcytosine and pseudouridine; LNP NPA-060-1 in Examples 17-22 (nucleic acid)
chain: GGGAAAUAAGAGAGAAAAGAAGAGUAAGAAGAAAUAUAAGAGCCACCAUGGGAGUGCACGAGUGUCCCGCGUGGUUGUGGUUGCUGCUGUCGCUCUUGAGCCUCCCACUGGGACUGCCUGUGCUGGGGGCACCACCCAGAUUGAUCUGCGACUCACGGGUACUUGAGAGGUACCUUCUUGAAGCCAAAGAAGCCGAAAACAUCACAACCGGAUGCGCCGAGCACUGCUCCCUCAAUGAGAACAUUACUGUACCGGAUACAAAGGUCAAUUUCUAUGCAUGGAAGAGAAUGGAAGUAGGACAGCAGGCCGUCGAAGUGUGGCAGGGGCUCGCGCUUUUGUCGGAGGCGGUGUUGCGGGGUCAGGCCCUCCUCGUCAACUCAUCACAGCCGUGGGAGCCCCUCCAACUUCAUGUCGAUAAAGCGGUGUCGGGGCUCCGCAGCUUGACGACGUUGCUUCGGGCUCUGGGCGCACAAAAGGAGGCUAUUUCGCCGCCUGACGCGGCCUCCGCGGCACCCCUCCGAACGAUCACCGCGGACACGUUUAGGAAGCUUUUUAGAGUGUACAGCAAUUUCCUCCGCGGAAAGCUGAAAUUGUAUACUGGUGAAGCGUGUAGGACAGGGGAUCGCUGAUAAGCUGCCUUCUGCGGGGCUUGCCUUCUGGCCAUGCCCUUCUUCUCUCCCUUGCACCUGUACCUCUUGGUCUUUGAAUAAAGCCUGAGUAGGAAG
modifications: Cap1, 5-methylcytosine, pseudouridine
HCT [1, 4]: 0.46 L/L
RBC [1, 4]: 5.57 10^12/L
HCT [1, 5]: 0.39 L/L
RBC [1, 5]: 5.18 10^12/L
HCT ([1]; 0.05 mg/kg, 24 hours, Male NHP): 0.43 L/L
RBC ([1]; 0.05 mg/kg, 24 hours, Male NHP): 5.25 10^12/L
HCT ([1]; 0.05 mg/kg, 3 days, Female NHP): 0.4 L/L
RBC ([1]; 0.05 mg/kg, 3 days, Female NHP): 5.16 10^12/L
HCT ([1]; 0.05 mg/kg, 3 days, Male NHP): 0.38 L/L
RBC ([1]; 0.05 mg/kg, 3 days, Male NHP): 4.81 10^12/L
HCT ([1]; 0.05 mg/kg, 7 days, Female NHP): 0.41 L/L
RBC ([1]; 0.05 mg/kg, 7 days, Female NHP): 5.31 10^12/L
HCT ([1]; 0.05 mg/kg, 7 days, Male NHP): 0.45 L/L
RBC ([1]; 0.05 mg/kg, 7 days, Male NHP): 5.37 10^12/L
HCT [1, 6]: 0.43 L/L
RBC [1, 6]: 5.84 10^12/L
HCT ([1]; 0.05 mg/kg, Pre-dose, Male NHP): 0.45 L/L
RBC ([1]; 0.05 mg/kg, Pre-dose, Male NHP): 5.57 10^12/L
Female NHP HGB ([1]; 14/18 days): 133 g/L
Female NHP Neutrophils ([1]; 14/18 days): 2.36 10^9/L
Male NHP HGB ([1]; 14/18 days): 146 g/L
Male NHP Neutrophils ([1]; 14/18 days): 7.16 10^9/L
Female NHP HGB ([1]; 24 hours): 108 g/L
Female NHP Neutrophils ([1]; 24 hours): 11.85 10^9/L
Male NHP HGB ([1]; 24 hours): 127 g/L
Male NHP Neutrophils ([1]; 24 hours): 7.5 10^9/L
Female NHP HGB ([1]; 3 days): 120 g/L
Female NHP Neutrophils ([1]; 3 days): 5.22 10^9/L
Male NHP HGB ([1]; 3 days): 126 g/L
Male NHP Neutrophils ([1]; 3 days): 11.07 10^9/L
Female NHP HGB ([1]; 7 days): 134 g/L
Female NHP Neutrophils ([1]; 7 days): 2.85 10^9/L
Male NHP HGB ([1]; 7 days): 140 g/L
Male NHP Neutrophils ([1]; 7 days): 11.8 10^9/L
Female NHP HGB ([1]; Pre-dose): 123 g/L
Female NHP Neutrophils ([1]; Pre-dose): 1.82 10^9/L
Male NHP HGB ([1]; Pre-dose): 134 g/L
Male NHP Neutrophils ([1]; Pre-dose): 9.72 10^9/L
HCT [1, 7]: 0.46 L/L
RBC [1, 7]: 5.72 10^12/L
HCT [1, 8]: 0.48 L/L
RBC [1, 8]: 5.83 10^12/L
HCT [1, 9]: 0.36 L/L
RBC [1, 9]: 4.69 10^12/L
HCT ([1]; 0.5 mg/kg, 24 hours, Male NHP): 0.4 L/L
RBC ([1]; 0.5 mg/kg, 24 hours, Male NHP): 5.12 10^12/L
HCT ([1]; 0.5 mg/kg, 3 days, Female NHP): 0.39 L/L
RBC ([1]; 0.5 mg/kg, 3 days, Female NHP): 5.15 10^12/L
HCT ([1]; 0.5 mg/kg, 3 days, Male NHP): 0.41 L/L
RBC ([1]; 0.5 mg/kg, 3 days, Male NHP): 5.13 10^12/L
HCT ([1]; 0.5 mg/kg, 7 days, Female NHP): 0.45 L/L
RBC ([1]; 0.5 mg/kg, 7 days, Female NHP): 5.68 10^12/L
HCT ([1]; 0.5 mg/kg, 7 days, Male NHP): 0.45 L/L
RBC ([1]; 0.5 mg/kg, 7 days, Male NHP): 5.55 10^12/L
HCT [1, 10]: 0.4 L/L
RBC [1, 10]: 5.26 10^12/L
HCT ([1]; 0.5 mg/kg, Pre-dose, Male NHP): 0.44 L/L
RBC ([1]; 0.5 mg/kg, Pre-dose, Male NHP): 5.43 10^12/L
reticulocytes 3 days to 14/18 days after dosing relative to 24 hours after dosing ([1]; all dose groups): increase in reticulocytes
effect on hemoglobin (HGB), hematocrit (HCT) and red blood cell (RBC) count ([1]; cynomolgus monkey, in vivo): had an effect
Average Protein Product, serum [2]: 191.5 pg/mL
Average Protein Product, serum (human EPO) [3]: 72.03 pg/mL
